This is an account of results in patent publication US20170152292A1 (FONDATION THE ARK, published 2017).

Assay [1] deals with monomeric N protein NK170AR185A-His (N^mono) (human respiratory syncytial virus (HRSV)) (UniProt P03418). The experiment in a line: SPR, GST-P[1-40] mutant captured on anti-GST antibody, N^mono injected. Background: SPR reads the build-up and loss of mass on a sensor chip optically.
Assay [2] has the same target. Put plainly: SPR (Proteon XPR36): GST-P[1-40] mutant captured on anti-GST antibody, N^mono injected, steady-state fit.
Assay [3] has the same target. Put plainly: SPR (ProteOn XPR36), GST-P[1-40] captured on anti-GST antibody, N^mono injected, steady-state fit; upper end of the range 4-5 µM.
For assay [4] the target is unchanged. Put plainly: SPR (ProteOn XPR36), GST-P[1-40] captured on anti-GST antibody, N^mono injected, steady-state fit; lower end of the range 4-5 µM.
Assay [5] deals with RSV nucleoprotein N, wild type (N^0 form in cells) (human respiratory syncytial virus (HRSV)) (UniProt P03418). The experiment in a line: cell-based or functional assay.
The target of assay [6] is T1, monomeric N protein NK170AR185A-His (N^mono) (human respiratory syncytial virus (HRSV), UniProt P03418 1-391).
T1 construct: also called NK170AR185A-His protein; recombinant N^mono
T1 sequence: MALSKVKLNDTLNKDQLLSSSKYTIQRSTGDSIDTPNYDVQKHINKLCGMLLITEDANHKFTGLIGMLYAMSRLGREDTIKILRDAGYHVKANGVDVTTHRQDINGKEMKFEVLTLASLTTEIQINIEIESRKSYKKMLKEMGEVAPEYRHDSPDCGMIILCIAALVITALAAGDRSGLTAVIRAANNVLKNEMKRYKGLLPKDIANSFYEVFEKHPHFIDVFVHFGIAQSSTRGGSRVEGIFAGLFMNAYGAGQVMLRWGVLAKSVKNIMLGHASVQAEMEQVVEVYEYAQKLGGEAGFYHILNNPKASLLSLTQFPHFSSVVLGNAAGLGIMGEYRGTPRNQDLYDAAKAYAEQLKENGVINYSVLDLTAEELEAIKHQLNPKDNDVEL
The experiment in a line: fluorescence polarization competition: stapled peptide titrated against FAM-P(1-40) on recombinant N^mono. A general note: In fluorescence polarisation assays a small probe gives low polarisation when free and higher when bound to something large.

Where “and” joins values, the source holds several entries; their conditions need not be identical. Equal values may be shown once. Bridges are numbered along the chain shown (N, C = ends). Where no end group is shown, it is not given here. [ ]: non-standard residue; d: D form. R8 = C=CCCCCCC[C@@](C)(N)C(=O)O; S5 = C=CCCC[C@](C)(N)C(=O)O

As to “GST-P[1-40] E2A (from UniProt P12579 1-40)”, in assay [1], the Kd (in general, the equilibrium constant for the complex coming apart) worked out at 1.9 µM and the fold increase of affinity against wild type GST-P[1-40] was 2 fold.

“GST-P[1-40] E7A (from UniProt P12579 1-40)”: the Kd in assay [2] was 11.1 µM; in assay [1] it was > 10 µM and < 20 µM.

Molecule “GST-P[1-40] E22A (from UniProt P08515 1-218; P12579 1-40)” yielded a Kd in assay [2] of 7.49 µM.

Turning to “GST-P[1-40] F4A (from UniProt P12579 1-40)”, the Kd in assay [2] is 13.8 µM; in assay [1] it was > 10 µM and < 20 µM.

In turn, “GST-P[1-40] F8A (from UniProt P12579 1-40)” showed a Kd in assay [1] of 41 µM.

With “GST-P[1-40] G10A (from UniProt P12579 1-40)”, the Kd in assay [2] is 5.1 µM; in assay [1], > 5 µM and < 10 µM.

In assay [1], “GST-P[1-40] G26A (from UniProt P12579 1-40)” yielded a Kd of 2.6 µM and a fold increase of affinity against wild type GST-P[1-40] of 2 fold.

In assay [2], “GST-P[1-40] H9A (from UniProt P12579 1-40)” came in with a Kd of 4 µM.

On to “GST-P[1-40] I24A (from UniProt P12579 1-40)”, for which the Kd in assay [2] was 16.4 µM; in assay [1], > 10 µM and < 20 µM.

The molecule “GST-P[1-40] K3A (from UniProt P12579 1-40)” displayed a Kd in assay [2] of 3.49 µM. This lies in the single-digit micromolar range.

Turning to “GST-P[1-40] K25A (from UniProt P12579 1-40)”, the Kd in assay [2] is 7.77 µM; in assay [1], > 5 µM and < 10 µM.

“GST-P[1-40] L21A (from UniProt P08515 1-218; P12579 1-40)” showed a Kd in assay [2] of 17.6 µM.

With “GST-P[1-40] P6A (from UniProt P12579 1-40)”, the Kd in assay [2] amounted to 4.89 µM.

The molecule “GST-P[1-40] S23A (from UniProt P12579 1-40)” yielded a Kd in assay [2] of 4.5 µM.

Take “GST-P[1-40] wild type (from UniProt P12579 1-40)”: the Kd in assay [3] was less than 5 µM; in assay [4], more than 4 µM.

“RSV phosphoprotein P E7A (full length, plasmid pP) (from UniProt P12579 1-241)” displayed a luciferase activity in the HRSV minigenome replication assay in assay [5] of 50 % reduction.

In assay [5], “RSV phosphoprotein P F4A (full length, plasmid pP) (from UniProt P12579 1-241)” displayed a luciferase activity in the HRSV minigenome replication assay of 50 % reduction and a polymerase activity in the HRSV minigenome replication assay of 80 % reduction.

Turning to “RSV phosphoprotein P F8A (full length, plasmid pP) (from UniProt P12579 1-241)”, in assay [5], the luciferase activity in the HRSV minigenome replication assay came out at 50 % reduction and the polymerase activity in the HRSV minigenome replication assay turned out to be 80 % reduction.

As for “RSV phosphoprotein P F20A (full length, plasmid pP) (from UniProt P12579 1-241)”, in assay [5], the luciferase activity in the HRSV minigenome replication assay was determined as 50 % reduction and the polymerase activity in the HRSV minigenome replication assay came out at 80 % reduction.

On to “RSV phosphoprotein P G10A (full length, plasmid pP) (from UniProt P12579 1-241)”, for which, in assay [5], the luciferase activity in the HRSV minigenome replication assay was determined as 50 % reduction and the polymerase activity in the HRSV minigenome replication assay stood at 80 % reduction.

Turning to “RSV phosphoprotein P I24A (full length, plasmid pP) (from UniProt P12579 1-241)”, in assay [5], the luciferase activity in the HRSV minigenome replication assay came out at 50 % reduction.

Turning to “RSV phosphoprotein P K25A (full length, plasmid pP) (from UniProt P12579 1-241)”, in assay [5], the luciferase activity in the HRSV minigenome replication assay is 50 % reduction.

Molecule “RSV phosphoprotein P L21A (full length, plasmid pP) (from UniProt P12579 1-241)” had a luciferase activity in the HRSV minigenome replication assay in assay [5] of 50 % reduction.

B1: HEVS108 (peptide)
stapled peptide: Ac-EDANNKAT[R8]FLESIK[S5]KFAS
modifications: staple 9-16
Consider B1, for which the binding result in assay [6] was “no binding”.
